Residue numbers refer to the chain shown, from its start. Numbers in names are those of the source.
B1: IL4-P3-1B9VH-cIgGB/IL4-P3-1B9VL-cCL (antibody, V domains shown)
VH: ELQLVELGGDLVKPGGSLRLSCVASGFTFSSYGMSWVRQSPGKGLQWVADISSSGSTYYADAVKGRFTISRDNAKSTLYLQMNSLRAEDTAVYYCAKAGYGSYYDFGMDYWGHGTSVFVSS
VL: QAVLTQPASVSAALGQRVTISCTGTATNVGGGYDVQWYQQFPGRPPKTIIYGNYNRPSGVPDRFSASTSGTTATLTITGIQVADEADYYCQSFDTTFNGHVFGAGTQLTILG
notes: Full-length canine IgG-B
B2: IL4-P3-1C4VH-cIgGB/IL4-P3-1C4VL-cCL (antibody, V domains shown)
VH: EVPLVESGGDLVKPGGSLRISCVASGITFNNDDMGWVRQAPGKGLQWLAEISSSGTSTYYADAVKGRFTISRDNAKNTVYLQMNSLKAEDTGVYYCVGEDGYMALGFWGQGTLVTVSS
VL: QAVLNQPASVSGSLGQRVTISCSGSTNNIGVVGASWYQQFPGKAPKLLVYSDGDRPSGVPDRFSGSNSGYSDTLTITGLQAEDEADYYCQSFDTTLNAYVFGSGTQLTVLG
notes: Full-length canine IgG-B; also called IL4 P3-1 C4 5LC
B3: IL4-P3-1D7VH-cIgGB/IL4-P3-1D7VL-cCL (antibody, V domains shown)
VH: EVQLVQSGGDLVKPGGSLRLSCVASGFAFNGYDMDWVRLAPGKGLQWLSEISSSGSPTYYADAVEGRFTISRDNAKNTLYLQMDSLRAEDTAVYYCARAGEYTYGYEGYYFDYWGQGTLVTVSS
VL: QSMLTQPASVSGSLGQRVAISCSGSTNNIGIFGATWYQHLPGKAPKFLLYSDGNRPSGVPDRFSGSDSGNSVTLMITALQAEDEADYYCQSFDTTLGAYVFGSGTQLTILG
notes: Full-length canine IgG-B; also called IL4-P3-1D7VH-cIgGB/IL4-P3-D7VL-cCL
B4: IL4-P4A-1A4VH-cIgGB/IL4-P4A-1A4VL-cCL (antibody, V domains shown)
VH: EVQLVESGGDLVKPGGSLRLSCVASGFNFSRYSMSWVRQAPEKGLQLVAAVNSGGSRTWYADAVQGRFTVSRDNAKNTLFLEMSSLKLEDTAMYYCAKDLWSTTIAEYDYWGQGTLVTVSS
VL: SYVLSQPPSVSVTPSETAHITCGGNNIGSKYVQWIRQSAGQAPVTIIYGNTNRPTGIPERFSGANSGNTATLTISGVLAEDEADYYCQVGDTDTTVFGGGTHLTVL
B5: IL4-P4A-1F10VH-cIgGB/IL4-P4A-1F10VL-cCL (antibody, V domains shown)
VH: EVQLVQSGGDLVKPAGSLRLSCVASGFTFNSYAMSWVRQAPGKGLQWVAGINSGGSTTTYADAVKGRFTISRDNAKNTLYLQMNSLRAEDTAVYYCAKDQNSYYPSDTFEYWGQGTLVTVSS
VL: QTVVTQEPSLSVSPGGTVTLTCGLSSGSVSTGNYPGWYQQTQGRAPRSIIYDTNSRPSGVPDRFSGSISGNKAVLTITGAQPEDEADYYCSLYTGIAYTDVVFGGGTHLTVLG
notes: Full-length canine IgG-B; also called IL4-1F10; IL4 1F10
B6: IL4-P4A-1A10VH-cIgGB/IL4-P4-1A10VL-cCL (antibody, V domains shown)
VH: EVQLVESGGDLVKPGGSLRLSCVASGFTFSDYDMTWVRQAPGKGLQWVADINNGGSSTTYADAVKGRFTISRDNAKNTLYLQMNSLRAEDTAMYYCAKEGDNTWLSFDSWGQGTLVTVSS
VL: QSVLNQLPSVSGSLGQKVTIRCSGNTDNIGMVGAAWYRQVPGEAPKLLLYSDGNRPSGVPDRFSGSDSGRSATLTITGLQPEDEADYYCQSLDPTVPGNYLFGSGTQLTILG
notes: also called IL4-P4-1A10VH-cIgGB/IL4-P4-1A10VL-cCL
B7: IL4-P4-1G3VH-cIgGB/IL4-P4-1G3VL-cCL (antibody, V domains shown)
VH: EVQLVESGGDLVKPGGSLRLSCVASGFTFSSYDMDWVRQAPGKGLEWLSEISTNGDRTHYADAVKGRFAISRDNAKNTVYLQMNSLRAEDTAIYYCVRDGYEYLAFDYWGQGTLVTVSS
VL: QSVLNQLPSLSMNMGETATFTCEGDNIGHKYVNWYQQKPGQAPVLTIYEDNKRPSGIPERFSGSNSGNTATLTISGARAEDEADYYCESEVSTGIVFGGGTHLTVLG
notes: Full-length canine IgG-B
B8: IL4-P3-1A6VH-cIgGB/IL4-P3-1A6VL-cCL (antibody, V domains shown)
VH: EVPLVESGGDLVKPGGSLRLSCVASGFTFHNYDLSWIRQLPGGGLQWVADIDKSGLTFYADAVKGRFTISRDNAKNTLYLQMNSLRAEDTAVYYCATWPLGSWYTETFEYWGQGTLVTVSS
VL: QPVLTQPPSVSAALGQRVTISCNTNIGSPYDVQWYQQLPGKSPKTIIYGNSNRPSGVPVRFSGSKSGSTATLTIAGIQAEDEADYYCQSYDDNVDGYVFGSGTQLTVLG
B9: IL4-P3-1B10VH-cIgGB/IL4-P3-1B10VL-cCL (antibody, V domains shown)
VH: EVQLVESGGDLVKPGGSLRLSCVASGFTFSNYDMSWVRQAPGKGLQWVSTISYDGNNTYYSDAVKGRFTISRDNARNTLYLQMNSLRAEDTAVYYCAKEFDIPWDNFDYWGQGTLVTVSS
VL: QSVLTQPTSVSAALGQRVTISCTGSNANIGSVYDVQWYQQLPGKSPKTIIYGNTHRPSGVPVRFSGSKSGSTATLTITGIQAEDEADYYCQSYDATLHYVFGSGTQLTVLG
B10: IL4-P3-1B10VHm-cIgGB/IL4-P3-1B10VL-cCL (antibody, V domains shown)
VH: B9 VH with N56Q
VL: B9 VL
notes: Full-length canine IgG-B; also called IL4 P3-1 B10m
B11: IL13 P3-1 B4 scFv (scFv)
scFv: SYVLTQSPSVSGSLGQTVTISCSGTTIGVVGANWYQQLPGKAPKLLVHSDGGRLSGVPDRFSGSESGNSAALTITGLQAEDEADYYCQSFDTTLGYVFGSGTQLTILGGGSSRSSSSGGGGSGGGGELTLQESGPGLVKPSQTLSLTCVVSGGSVTSNYYWNWIRQRPGRGLEWMGYWTGSTNYNPAFQGRISITADTAKNHFSLQLTSMTTEDTAVYYCARASTWLHGMDFWGHGTSLFVSSESPSPPNLTSGQAGQ
notes: scFv purified from E. coli periplasm on Ni-NTA
B12: IL 13 P3-1C6 scFv (scFv)
scFv: QSVLTQPASVSGSLGQRVTISCSGRTNNIGYFGANWYQQVPGKAPKLLVSSYGNRPSGVPDRFSASNSANSATLTITGLQAEDEADYYCQSFDTTLGAVVFGGGTQLTVLGGGSSRSSSSGGGGSGGGGELTLQESGPGLVKPSQTLSLTCVVSGGSVTNTYEWDWIRQRPGRGLEWMGSWTDNTWYNPAFQGRISITADTAKNQLSLQLSSVTTGDTAVYFCARWTKRWGYDYWGQGTLVTVSSASTTAPSVTSGQAGQ
notes: scFv purified from E. coli periplasm on Ni-NTA; also called IL13 1C6
B13: IL13 P3-1 G5 scFv (scFv)
scFv: SYELTQPPSVSVSLGQTATISCSGESLSKYYAQWFQQKAGQAPVLVIYQDTERPSGIPDRFSGSSSGNTHTLTISGARAEDEADYYCESAISPDTYVFGSGTQLTILGGGSSRSSSSGGGGSGGGGEVQLVQSGGDLVKPGGTLRLSCVASGFTFSSYDMSWVRQSPGKGLQWVAAIWNDGSNTEYADAVKGRFTVSRDNAKNTVYLEMNSLRAEDTAMYYCVKEGPSYGYFDYWGQGTLVTVSSASTTAPSVTSGQAGQ
notes: as for B11
B14: IL13 P3-1 C2 scFv (scFv)
scFv: QAVLNQPASVSGSLGQRVTISCSGSSSNIGRGFVGWYQQLPGTRPKTLIYGDTFRPSGVPDRFFGSRSGSTATLTISGLQAEDEADYYCSTWDDSLAALLFGGGTHLTVLGGGSSRSSFSGGGGSGGGGEVQLVESGGDLVKPGGSLRLSCAASGFTFTDYDMSWVRQAPGKGLQWVATTSNGGSGTYYSDAVKGRFTISRDNAKNTLYLEMNRLRAEDTAVYYCVKEIYPASIDFWGLGTLVTVSSASTTAPSVTSGQAGQ
notes: as for B11

Each binder was assayed against T1, Recombinant canine IL-4 (R&D Systems, Catalog: 752-CL/CF) (canine, UniProt O77762 25-132) (assay: cell-based or functional assay).
T1 sequence (looked up): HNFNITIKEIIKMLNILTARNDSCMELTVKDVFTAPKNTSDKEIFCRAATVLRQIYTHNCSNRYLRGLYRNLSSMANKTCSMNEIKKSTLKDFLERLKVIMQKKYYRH

Binder | IL-4 IC50 (nM); inhibition of canine IL-4 mediated STAT6 phosphorylation in DH82 cells [nM]
B1 | 3.77
B2 | 5.41
B3 | 37.6
B4 | 4.24
B5 | 0.58
B6 | 3.15
B7 | 8.31
B8 | 0.56
B9 | 87.8
B10 | 30

Molecular target: T2, Canine IL-13 with C-terminal Avi-HIS tag (canine, biotin label when loaded on SA biosensors (Example 4); site not stated)
T2 construct: also called cIL-13; biotinylated avitag-cIL13
T2 chain: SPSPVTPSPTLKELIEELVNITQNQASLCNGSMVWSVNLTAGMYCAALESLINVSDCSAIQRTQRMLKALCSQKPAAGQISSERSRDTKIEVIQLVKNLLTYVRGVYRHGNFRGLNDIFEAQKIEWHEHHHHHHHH
Experiment: BLI (OCTET HTX); biotin-cIL-13 on SA biosensors, scFv in solution; 1:1 model
Experimental: The in vitro binding of anti-canine IL-4 scFv and IL-13 scFv to canine IL-4 and canine IL-13, respectively, was determined by OCTET HTX using SA biosensors and Data Acquisition 12.0 software. First, biotin-labeled antigen (cIL-4 or cIL-13) was loaded onto the pre-rehydrated SA biosensors for 60 seconds (60s) at a concentration of 5 μg/mL. Second, the biosensors were placed into the OCTET Kinetics Buffer (PBS+0.02% Tween20, 0.1% BSA) for the blocking phase for 120s. Third, for the association phase, cIL-4 or cIL-13 antigen loaded biosensors were placed into 2-fold serial dilutions from 500 nM down to 7.8 nM of anti-cIL-4 or anti-cIL-13 scFvs, respectively, in OCTET Kinetics Buffer for 60s. The last well was buffer alone and that sensor was used for reference sensor subtraction. Finally, the biosensors were placed into OCTET Kinetics Buffer for the dissociation phase for 300s. The analysis was performed using Data Analysis 12.0 software and curves were fitted using a 1:1 binding model.

Binder | Kd [nM] | koff [s⁻¹] | kon [M⁻¹ s⁻¹]
B11 | 13.1 | 0.00224 | 320000
B12 | 45.2 | 0.0107 | 304000
B13 | 158 | 0.0158 | 104000
B14 | 77.4 | 0.00192 | 29600

Molecular target: T3, Canine IL-4 with C-terminal Avi-HIS tag (canine, biotin label when loaded on SA biosensors (Example 4); site not stated)
T3 construct: also called cIL-4; biotinylated avitag-cIL-4
T3 chain: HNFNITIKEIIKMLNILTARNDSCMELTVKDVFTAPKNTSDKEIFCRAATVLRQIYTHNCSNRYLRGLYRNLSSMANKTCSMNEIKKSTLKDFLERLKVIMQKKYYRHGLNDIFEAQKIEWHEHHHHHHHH
Experiment: BLI (OCTET HTX); biotin-mAb on SA biosensors, cIL-4 in solution; 1:1 model
Experimental: Selected scFv specific to cIL-4 or cIL-13 were converted into full length canine IgG mAbs and tested for binding by OCTET. All kinetics measurements were performed by OCTET HTX using SA biosensors and Data Acquisition 12.0 software. First, each biotin-labeled full-length anti-canine IL-4 or anti-canine IL-13 mAb, at a concentration of 5 μg/mL, were loaded onto the pre-rehydrated SA biosensors until binding signal change ascended to a […] threshold for all channels from the step start or for a maximum of 1200s to insure equal loading density. Second, the biosensors were placed into OCTET Kinetics Buffer (PBS+0.02% Tween20, 0.1% BSA) for the blocking phase for 60s. Third, for the association phase, full-length anti-canine IL-4 mAb or anti-canine IL-13 mAb loaded biosensors were placed into 2-fold serial dilutions from 1000 nM down to 15.6 nM of cIL-4 or cIL-13, respectively, in OCTET Kinetics Buffer for 60s. The last well was buffer alone and that sensor was used for reference sensor subtraction. Finally, the biosensors were placed into OCTET Kinetics Buffer for the dissociation phase for 180s. Analysis was performed using Data Analysis 12.0 software and curves were fitted using a 1:1 binding model.

Binder | Kd [nM] | koff [s⁻¹] | kon [M⁻¹ s⁻¹]
B1 | 0.0635 | 2.11e-05 | 212000
B2 | 10.5 | 0.0189 | 1.8e+06
B3 | 2.01 | 0.00226 | 1.12e+06
B5 | 0.305 | 0.000114 | 374000
B6 | 0.846 | 0.00105 | 1.24e+06
B7 | 1.51 | 0.00243 | 1.61e+06
B10 | 0.622 | 0.000809 | 1.3e+06

From patent US20260234236A1 (INTERVET, published 2026)
